The supplement of paper PMC11502859

Test system: HEK293T
Assay: median enrichment of reporter reads in eGFP-reduced (low/intermediate) vs eGFP-high sorted cells (eGFP-extension fusion abundance) (ratio); higher = stronger loss of eGFP-fusion protein abundance (more destabilising extension)
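Also: lentiviral eGFP-IRES-mCherry reporter pool sorted by FACS 96 h post-transduction, gated on mCherry-high cells, Illumina read counts normalized per million, median across four biological replicates.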

Substance	median enrichment
LPSASGSVVGQALIPALWGGSLYSLFGGMVTEFIVEPFSVQMLWLQIRNPTSPG [GOLGA3]	4.27
LPSESGGKTPPSLCILNH [UGT3A1]	0.835
LPSRSTATQVYLPLPSNPFPRAIFISPNKRAPRK [HRC]	11.1
LPSTCPWGQEHPRPQKRERKGQKKEEKKNVQKDFRSSHSYF [TOB2]	0.26
LPVGCFTSTPAPPASNAHSTPNTTPCPTNAHSRAW [C1QB]	1.02
LPVGVAGSSLQIWPARCLAGWTG [DOLPP1]	8.63
LPVRPAQPGPGPRFSTRTVHPASRSL [DLGAP3]	17.6
LQCTIFSHLYYFFSACIT [HAO1]	1.93
LQGPLDL [OR56A3]	0.31
LQIYVCYN [OR8I2]	6.8
LQNPNLELPMLLSYKHTDSGYS [ATP11C]	1.23
LQPIYLFISLWGLTH [GUCY1A1]	15.3
LQPTWSTRAGP [KRT36]	0.897
LRAGEPHILTAPGLYPGHSRDRLVVEPGGAKKASCGPRTAAVRLPMSQAVCVVTAPLSVHLQQRQRRRLPPGRFSLFIC [ZMYND19]	6.85
LRASPRRDGKKIYKYISF [CYP2U1]	7.5
LRCQLPSEQAGGICHTAPPLG [SMPD4]	2.92
LRGPSPPPMAGG [Degron KLHDC2]	5.1
LRICRRFPFMKH [CUL4A]	8.83
LRISQG [ESRRB]	1.67
LRKLILLIFMTNLYICF [RGS18]	14.1
LRLIIYQEC [PKIB]	6.92
LRLQCLLRRKIKFTSSKVTLEDRALGMSFFF [OR2C3]	4.08
LRLSISRDMVLTQQFPVMAKCSI [IL13RA2]	41.5
LRMKQLLSGPALPHSCASSALLSSQT [LCN12]	30.4

Substance	median enrichment
LRMWKITCFYLELFNLKIRNCFLLLSQ [CCDC34]	26.1
LRPGHPDVLLKGAPRAGRGL [CBLC]	1.91
LRPHKHYGRSVGPQHGLPSGRPVLPEEGPACWPGACRHC [ZGPAT]	6.53
LRQRQHQCRACPAALSLHALRAPLLLRYPFETSGAGPLPASLTIPRPLSHLGLGKPDSTQDQGSHEARRLRGSCPFSYSRA [SHOX2]	5.48
LRRGGKREKMERGAGNGGERTSKETEMKT [ZSWIM9]	1.53
LRRGPGSLRACEEHLLPKNVWFFFLFCFRFSSFEEQREIKRRPPGRGAFSQRLGRFPKSRVPASPAEFTSVPEAAVSSS [BIN1]	7.66
LRRIQICVCVCVCVCVCVCVCVSLCLCIG [KIFC1]	24.3
LRRRMSLRAPSWSGPRHPGTSALPPPALLHHMSS [ADHFE1]	18.5
LRRVLSNLFFFFLYLHLQPQLSHFSP [MTMR11]	11.6
LRSLI [BAMBI]	7.1
LRSRRDEAASPFSASPPAQGPSGGACRTCPGTVAPQACLSCRVPMAWSLHLTDWSPLPDSHFQKLGGRDTWKTPVTSFLLRA [DPM2]	4.89
LRVAFFLL [GTF2A1]	6.78
LRWLACWAWGLLTDSMEQGWAVCAHAQHALRGGGGGRGFLMSVQELKVSGVLPRICPTPHDKTELCNKQYQFILAVGFCFFSS [WDR6]	7.93
LSCPDAME [MYH2]	0.416
LSDHPAFPN [TMBIM6]	0.54
LSEQVNSRTGAEALPKMK [UVRAG]	0.405
LSFCLA [UTP3]	8.65
LSFRQFSSNGPFQGRPLPLRKSCDCILSDGNISMALLGYSA [HIST1H4B]	5.72
LSGAQE [HELLS]	0.562
LSGLCT [LCE1A]	0.479
LSGP [LCE1C]	0.649
LSHA [CACNG6]	0.594
LSLLIQKWGQFRKNYLLFAWWFFIMDLAQKKNC [GART]	11.7
LSLTALPGANSGT [ANKZF1]	1.24

Substance	median enrichment
LSLTASLK [TEX35]	1.49
LSPLFLPTLQGPHSPYPSVQCTREETLCL [IDH3B]	7.06
LSPLRNIINCRL [DKK2]	8.81
LSPQMGAEIFQSLEFFQ [ZNF112]	0.686
LSQTSFYIREPFQYSESETPA [ZNF12]	3.12
LSRL [ESM1]	10.3
LSRLCTQGPSLATSLPFCLTPGHPSSLPHAQLPESPLCLTSPSTNGTPEGL [CYP11B1]	2.58
LSRLLASMDFSRDVDIVLRVH [DIP2C]	10.3
LSRLW [CREG1]	16.6
LSSC [KRTAP13-1]	0.413
LSSQLPGPLP [COMMD9]	0.399
LSVCHR [DPYS]	1.17
LSVHWGPSVVPFVENLLHKALLNCLELGTSIPMETSPVWGTWRICQRLSDMGPWQFYTGKWSAPLGYTRLSVFSPSILFPLHM [NYNRIN]	3.7
LSYQTTY [USP51]	1.11
LTAPPPPLSPGPGG [VMO1]	8.99
LTATRMDTALAVPTLDRVSALLHTGGGAGAYSCSIKHPSYAPPQ [ACTL7A]	9.25
LTEPCWPAPTSLCSFLWFLLSFPTLRREIYFTALNSL [UBTD2]	9.94
LTEQLLMSGG [NDUFS5]	5.57
LTFQDEWFILSNLLLTEQSSEPFNFKLHQLCAEPWCKVLSHSFFLSVEFGAIVSGT [ATAD2B]	6.97
LTFSGNRADDYNIFFLMLTFLKIHIWDSYYQGSTYVNLQFMFQDICQMYYRCL [SUV39H2]	10.1
LTGLPTWLPT [AANAT]	1.93
LTHAHAPLTLKRIHNSLEKHPHVCCRTHSSQLRPIPVTTASPPTPVTTASPPTPVTTASPPTALSPRPMSACPRAQDFLTGMW [SSH3]	3.55
LTLLKTGQSLPLCTF [MYCN]	15.2
LTLQAGTVLLLSLQYIR [GTPBP2]	9.07

Substance	median enrichment
LTLTV [ABCB1]	1.67
LTQPRGGSLVFVLKFLVPNVFSSTFS [IL36G]	15.7
LTRKCCCPSSTLRPGAG [FCHO1]	7.02
LTSDRRSSLSSLSGSKMTRANGTKFESCQVNTWVLSMVTSICFVMCVLFQPEWEMLIQLLQAAQWGWWL [CFH]	6.21
LTSQST [ANGPT2]	0.829
LTSSLQRSESGGGSACREGLDLHIFSGVVRASPYLLLSPCEEDPDLASFPRRGWGVPRVPVLEGPPSPSLITVLFSAPPSAAR [ZNF646]	4.64
LTYFNYCIFISSFPNTNKIIL [DYNC2LI1]	8.97
LTYLGRLGK [APBB3]	9.37
LTYLSLSRSQAVRGNRSHLLSLQASVCLCLRTWILDFNDAVDNDGRKGVGC [MGA]	8.5
LVAPPHWTHGLAHASPLLPLPAIDNVAGTSASPLQPSNFPGTLLSAPEEGAVVSCCLWAPASSAVLGSVLLASVNNKATVCSG [MCM5]	4.44
LVARALGVLLEAPRASRIASQLPGQPTLLQPLTRTPVIRTGAPVPWSPPWAHVLTQAQQ [OVOL1]	9.61
LVC [SYT16]	1.2
LVCPLATDTVGNQTLSWSLLLAHSTSKWI [HIBADH]	12.8
LVGWLLVFVSFLSCLLLKGNQK [MYCT1]	9.75
LVISSVFCFLF [MS4A1]	7.46
LVLCS [PIGX]	9.44
LVLDKREAWKTPHASYHTSVLWLLSFEVLYCNLLICMECAYFLKGY [MED6]	7.75
LVLIPTFPCDLGCRCSCCKMEANLTGVL [ADD2]	2.88
LVLLVLLICRCHRTAVTRFLIVPAQPCPRTLGCMSHNMDPG [TREML4]	3.13
LVLRLRATPLPSACSFPGIFVSF [EPS15L1]	18
LVRGRGGAGTYLPESWRQNEALSIPGILLLLRADARPRASRDGVGEVLPTPLSSFPSSTKFPPALTE [SELENOM]	4.2
LVRIFNIFQKCIYIVLLCFFHCTL [SLC39A12]	9.98
LVRRLGAPPRLRPASISLLQWPAS [IRF8]	7.26
LVSCLKGGNRKSRLLSVKFVLPVCC [PCMTD2]	7.69

Substance	median enrichment
LVSLPLVSAWQPPPPTYHPSPITQVNVTNLPCLHINLYIFGCSPYLMAVIIYRYVYPCYLVVSFSRGGTVFYSSLCPLFLSSV [PGLYRP4]	2.37
LVSRPWGSCFPIPEFPCSPPPVVLPDLHLELSPPESPHRRPAMEPSPPGAPWGPSP [ALPG]	10.3
LVTGYVKSFNVVLKSKGLLITDSRIMCS [FEM1B]	11
LVVAGPGPRPCPGPDSLSHVPSPRLPRTLSLPRPQP [MAFB]	9.74
LVVDVWGI [XRCC5]	4.14
LVW [ZNF160]	1.8
LVWGPCQPAAPKPAPLPKQPRPLPLNPGPGRPGRPPVTAAAPALCRAALTCLPSQPLTSRLSLGQREPFGGAACLLWFWEG [FLNA]	3.92
LWAHHKDTSSLCRHHPAIESGGPCWSLWTYSSRPEKSLALELNSLDCTITTTYELRDYEGLFRGYESEPLFLEL [TMEM177]	9.96
LWDNHKVWKLGLK [BCO2]	4.23
LWLPRPGRLLDILFWLNIVLWMVPQSGARILPRRKATNGSGNYIKPETLQQGENCAPGCLAQASLEPSKHFCPS [MAB21L3]	6.66
LWLSCLQYLNFKSKSIY [IFNG]	13.2
LWRQALQGGPDPRVVLTVLTVYLSSPRENASFEHTVPTICIEQKDFCFTEDKRCFYFRPRREEFALNL [CNOT8]	15.4
LWRSLVRRQDFSGLCLNGPHLNFSPFFLFLALGKASFYQTYRERKLQG [CTCF]	9.53
LWRWWPRGGLLGGVGDKTGQTTGPPKTVKG [HS6ST1]	11.4
LYKKKYCPYQKQILLCTF [RHOT1]	9.77
LYPFPIHSQINYNGC [SCNM1]	7.94
LYRSRWFFTALDIIPFYHPFITPKVCLIASEVYKVV [PLPPR5]	7.74
LYVTVSCLSSSMYF [ARHGEF35]	14.4
MALAVRVVYCGA [Degron KLHDC2]	5.57
MGNYILLCQGQQTPAVKGIPSARRLFGACMFIAPARPDRGLLHKPCLVHFFTCKGTECGLRFGTRGGFGNYGAQVIILRSFIQ [AHNAK]	9.08
MLSESRNFPAQA [Degron KLHDC3]	4.77
